# B1: 22099 (protein)
# chain: MALPVTALLLPLALLLHAARPQVQLVESGGGLVQPGGSLRLSCAASGFTFTNHAMSWVRQAPGKGLELVSSISGNGRTTYYADSVKGRFTISRDISKNTLDLQMNSLRAEDTAVYYCAKDGGETLVDSRGQGTLVTVSSLEGQPKANPTVTLFPPSSEELQANKATLVCLISDFYPGAVTVAWKADGSPVKAGVETTKPSKQSNNKYAASSYLSLTPEQWKSHRSYSCQVTHEGSTVEKTVAPTECSGRADCGFTSESYQQGVLSATILYEILLGKATLYAVLVSALVLMAMVKRKDSRGRAKRSGSGATNFSLLKQAGDVEENPGPTSMDWIWRILFLVGAATGAHSFEEVQLLESGGGLVQPGGSLRLSCAASGFTFSSYAMSWVRQAPGKGLEWVSSISGSGDYIYYADSVKGRFTISRDISKNTLYLQMNSLRAEDTAVYYCAKEGTGANSSLADYRGQGTLVTVSSTRASTKGPSVFPLAPSSKSTSGGTAALGCLVKDYFPEPVTVSWNSGALTSGVHTFPAVLQSSGLYSLSSVVTVPSSSLGTQTYICNVNHKPSNTKVDKRVEPKSCIPEDTFFPSPESSCDVKLVEKSFETDTNLNFQNLSVIGFRILLLKVAGFNLLMTLRLWSSRAKRSGSGVKQTLNFDLLKLAGDVESNPGPSRGHMTEYKPTVRLATRDDVPRAVRTLAAAFADYPATRHTVDPDRHIERVTELQELFLTRVGLDIGKVWVADDGAAVAVWTTPESVEAGAVFAEIGPRMAELSGSRLAAQQQMEGLLAPHRPKEPAWFLATVGVSPDHQGKGLGSAVVLPGVEAAERAGVPAFLETSAPRNLPFYERLGFTVTADVEVPEGPRTWCMTRKPGA
# B2: 22090 (protein)
# chain: MALPVTALLLPLALLLHAARPQLQLQESGPGLVKPSETLSLTCTVSGDSISSGDYYWGWIRQPPGKGLEWIGHIYYSGVTYYNPSLKSRVTISVDTSRNQFSLKLSSVTAADTAVYYCTREDSSNWRSRGQGTLVTVSSLEDKTHTCPPCPAGRADCGFTSESYQQGVLSATILYEILLGKATLYAVLVSALVLMAMVKRKDSRGRAKRSGSGATNFSLLKQAGDVEENPGPTSMDWIWRILFLVGAATGAHSFEVQLLESGGGLIQPGGSLRLSCAASGFTFSSHAMTWVRQAPGKGLEWVSAISGSGDYTHYADSVKGRFTISRDNSKNTVYLQMNSLRAEDSAVYYCAKDEDGGSLLGHRGQGTLVTVSSTRIQNPDPAVYQLRDSKSSDKSVCLFTDFDSQTNVSQSKDSDVYITDKCVLDMRSMDFKSNSAVAWSNKSDFACANAFNNSIIPEDTFFPSPESSCDVKLVEKSFETDTNLNFQNLSVIGFRILLLKVAGFNLLMTLRLWSSRAKRSGSGVKQTLNFDLLKLAGDVESNPGPSRGHMTEYKPTVRLATRDDVPRAVRTLAAAFADYPATRHTVDPDRHIERVTELQELFLTRVGLDIGKVWVADDGAAVAVWTTPESVEAGAVFAEIGPRMAELSGSRLAAQQQMEGLLAPHRPKEPAWFLATVGVSPDHQGKGLGSAVVLPGVEAAERAGVPAFLETSAPRNLPFYERLGFTVTADVEVPEGPRTWCMTRKPGA
# Tested on: L363 cells
# Test: JNG assay, co-culture with L363 cells
# Format: cell-based
# Conditions: co-culture with L363
# How it was run: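 Read-out is NFAT-driven GFP measured by flow cytometry after ~4–18 h co-culture of SAR-expressing JNG cells with target cells (E:T about 1:2). SARs were introduced by lentiviral spinfection and selected with puromycin or blasticidin when possible; scores (+/- to 5+ ≈ 5–50% GFP+) are relative to parental JNG cells.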
row,Molecule,NFAT-GFP ASSAY: L363
1,B1,"L363 (2+) (refer to approximately 5%, 10%, 20%, 30%, 40% and 50% GFP positive cells)"
2,B2,"3+ (refer to approximately 5%, 10%, 20%, 30%, 40% and 50% GFP positive cells)"

# Source: patent US20230212319A1, “NOVEL ANTIGEN BINDING DOMAINS AND SYNTHETIC ANTIGEN RECEPTORS INCORPORATING THE SAME” (University of Southern California, priority 2020, published 2023)
